Test results reported in the supplement of paper PMC12042874.
± gives the uncertainty stated by the source.

Test: amyloid nucleation score (Sup35N fusion, yeast selection) (log enrichment); library NNK2; higher = more nucleation; inactive = no reads after selection
Method in brief: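 Three technical output replicates were used for random libraries. Psi-negative yeast expressing peptides of 20 random codons fused to Sup35N were induced with 100 μM copper sulfate for 24 hours and grown 7 days at 30°C on medium lacking adenine and uracil, and input and output plasmid inserts were Illumina-sequenced, excluding sequences with under 100 input reads. The nucleation score is the DiMSum log enrichment of output over input reads, centred on the mode score of non-aggregating sequences.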
Substance MENGHCYFCQCTKSH has an amyloid nucleation score of 2.85 ± 0.1. With MEPNYGVRGVMYNFVMPRWM the amyloid nucleation score was 7.251 ± 0.047. In the case of MFGGLGTDSLA, the amyloid nucleation score is reported as -0.46 ± 1. For MFILGAHGKFGSTTMGVLAC, the amyloid nucleation score was -1.64 ± 0.62. MFRSVRFVCWSRLIDNRYMQ gave an amyloid nucleation score of -0.18 ± 0.34. MFSESE gave an amyloid nucleation score of -0.275 ± 0.35. MFSIYLLSCPLYISMNWSCR showed an amyloid nucleation score of 0.183 ± 1. MFSRIWPSSDL gave an amyloid nucleation score of -0.324 ± 1.1. MFSYTVSVLDLIYKSIWECE showed an amyloid nucleation score of -0.941 ± 0.35. MFWRSYNWDFSCYCNCSRGR gave an amyloid nucleation score of 5.054 ± 0.033. With MGFLLRLCTYRCVVVIWGSI the amyloid nucleation score was -1.08 ± 0.43. MGLWLDYDTHCYQNVVFKRT showed an amyloid nucleation score of 2.41 ± 0.091. Work on MGRGPESQHFVCCHRRAWL yielded an amyloid nucleation score of 1.15 ± 0.3. For MGTHKTDGRRQYLVVSSCEV, the amyloid nucleation score was 0.115 ± 1. Substance MHRSCGEIACTKKVAIEMKD has an amyloid nucleation score of 1.34 ± 0.18. In the case of MHSFHTICLLLMWRESRIAV, the amyloid nucleation score is reported as 0.45 ± 0.39. Work on MIEKVQFQCLVIICRNGVV yielded an amyloid nucleation score of 6.565 ± 0.052. MIERMSNRGMACLFVETRSG showed an amyloid nucleation score of -0.149 ± 0.76. For MIFYDAIGWKLGNRGSN, the amyloid nucleation score was -0.728 ± 0.45. Work on MIGNQNQGVCW yielded an amyloid nucleation score of 0.141 ± 0.29. In the case of MIGVYDGLRHNVEQGFVWCE, the amyloid nucleation score is reported as 0.419 ± 0.51. Substance MIQEVLWLVSS has an amyloid nucleation score of 0.043 ± 0.49. For MISRCDWFWSKLKTSL, the amyloid nucleation score was 2.29 ± 0.06. For MIVLIQKGLWGFDLQAVFVP, the amyloid nucleation score was -0.653 ± 1.1. MIVVCVRLYQGRYGRMPDYE showed an amyloid nucleation score of -0.16 ± 0.37. In the case of MKCDIFGGLSDN, the amyloid nucleation score is reported as 0.698 ± 0.62. MKGFELSLLVMRHSLELYRI gave an amyloid nucleation score of 0.463 ± 0.65. With MKRVGKFVGLGGRHVVHSRV the amyloid nucleation score was 0.434 ± 0.33. For MKTSLYRRGNPRLYREKSRK, the amyloid nucleation score was 1.01 ± 0.27. For MLDLIRLNDVICSQKFH, the amyloid nucleation score was 0.48 ± 0.64. MLDLNQFLCRGFKLTRPYGL showed an amyloid nucleation score of -0.155 ± 0.54. Substance MLECVSALGKLGWFIQPVCL has an amyloid nucleation score of -0.32 ± 0.55. For MLERHKDRTRSGLKRGARET, the amyloid nucleation score was 0.84 ± 0.46. Work on MLFSNVLLCKLCIFA yielded an amyloid nucleation score of 6.96 ± 0.055. With MLGHSWHF the amyloid nucleation score was “inactive”. For MLPFNRSVPNAAFFIGMIGS, the amyloid nucleation score was 2.16 ± 0.076. Work on MLSEADNLRRSYRHRIYEFI yielded an amyloid nucleation score of -0.874 ± 0.76. For MLWVWSLSQTLVRTKVRVLS, the amyloid nucleation score was 0.024 ± 0.5. Work on MLYVVCFCILVFLFHTNRMR yielded an amyloid nucleation score of -0.674 ± 0.32. With MLYYNESVINAVVYVKGRCW the amyloid nucleation score was -0.012 ± 1.1. Work on MMIPFVMYYRFDGYVKRHTG yielded an amyloid nucleation score of -0.512 ± 0.76. In the case of MMNCNVLMDKSSCFRYIVWG, the amyloid nucleation score is reported as 3.77 ± 0.051. In the case of MMWLGFYSCKGIGW, the amyloid nucleation score is reported as 3.991 ± 0.039. MMWLSARMQR gave an amyloid nucleation score of 6.727 ± 0.049. In the case of MMYDRIIQFTLYTLI, the amyloid nucleation score is reported as 3.09 ± 0.057. MNCVLQKLVVVCFQSMAYMR gave an amyloid nucleation score of 0.498 ± 0.27. MNFWILFQNLQHRCVQVTGR gave an amyloid nucleation score of 3.64 ± 0.068. For MNSIKMEGVRYNNPNDYTFC, the amyloid nucleation score was -1.14 ± 1.1. In the case of MNSSQGTDAKRMLYHRCSET, the amyloid nucleation score is reported as -0.29 ± 0.56. MNVYMGFTKVLSAVPRLLYG gave an amyloid nucleation score of -0.408 ± 0.56. MPVHSQSRMVRRRVDKTI showed an amyloid nucleation score of -0.632 ± 0.76. Work on MQAMRRGQKYKSGRVIYVRG yielded an amyloid nucleation score of -0.554 ± 0.63. MQFLFK showed an amyloid nucleation score of -1.33 ± 1.1. For MQIIGWILWGVLQAELHYRS, the amyloid nucleation score was -1.01 ± 0.53. In the case of MQIKFKS, the amyloid nucleation score is reported as -0.38 ± 0.56. Substance MQLCYKYRTVVTSSLDPEYM has an amyloid nucleation score of -0.066 ± 0.74. With MQMLWYTMFFNSSRLVC the amyloid nucleation score was -1.58 ± 0.61. With MQWETSGVLCWSKQFGGDWV the amyloid nucleation score was 0.864 ± 0.23. With MRLLVHSWDIESSFNVRMGQ the amyloid nucleation score was 3.42 ± 0.058. MRPAPIINN gave an amyloid nucleation score of 1.14 ± 0.44. With MRSYRLYLIPFHFLGWLINS the amyloid nucleation score was “inactive”. MRYSPWQGTHILWVLNTTSY gave an amyloid nucleation score of 1.82 ± 0.32. In the case of MSFWMSTTINRN, the amyloid nucleation score is reported as 1.67 ± 0.1. In the case of MSFYFNFIYYFYSYFTFEWF, the amyloid nucleation score is reported as “inactive”. With MSHTVITFFVCIVYSFSHCL the amyloid nucleation score was 1.86 ± 0.3. Work on MSIEKCICLICSINMEVVGF yielded an amyloid nucleation score of 6.821 ± 0.059. With MSITSC the amyloid nucleation score was “inactive”. In the case of MSLIKTHGKLTVGDVDFPKF, the amyloid nucleation score is reported as -0.753 ± 0.44. For MSLSLQKYFLWRPGRAPVVR, the amyloid nucleation score was -0.03 ± 0.63. Substance MSLSNDHSGAVWRRAFGYSE has an amyloid nucleation score of 0.51 ± 0.51. Substance MSRIRTTTMNSGFGGYTPVL has an amyloid nucleation score of 3.06 ± 0.056. Work on MSRKWGGSKRCNGCPPKLVQ yielded an amyloid nucleation score of 1.08 ± 0.22. In the case of MSSASQILAHDYQNSYG, the amyloid nucleation score is reported as -0.383 ± 0.32. With MSSMCNLFRYMFKLYVRSWV the amyloid nucleation score was -0.681 ± 0.3. For MSVMWLASLISFQLFMAAQL, the amyloid nucleation score was 0.062 ± 0.79. MSVPFLWFTYHFSRPVLSVT gave an amyloid nucleation score of 0.389 ± 0.27. MSWAVRDSIHRNYLKFVNRR showed an amyloid nucleation score of -0.02 ± 1.1. In the case of MSYILFCLPSNARCFLP, the amyloid nucleation score is reported as “inactive”. With MTALATRRCHPLYISA the amyloid nucleation score was -0.661 ± 0.42. Work on MTKCTDHVRVDDVCLHIRGS yielded an amyloid nucleation score of -0.255 ± 1.1. MTKHV gave an amyloid nucleation score of 0.241 ± 0.8. Substance MTRTFYCFQGRHLDSWDQGE has an amyloid nucleation score of 0.371 ± 0.8. MTSALGWQIYVYLSGAEYET showed an amyloid nucleation score of 0.31 ± 0.5. MTSENNWPNYTGLAPTPPAA showed an amyloid nucleation score of 1.32 ± 0.18. With MTSLGVPNAYCEGNGAWYHR the amyloid nucleation score was 0.321 ± 0.21. In the case of MTVNSLFHRLNKLRGILPDR, the amyloid nucleation score is reported as -0.902 ± 0.48. For MTVYLLIVLKFCFRRMSPEA, the amyloid nucleation score was -0.255 ± 0.49. In the case of MTWARRRSINIYDRHLRMAG, the amyloid nucleation score is reported as -0.388 ± 1. In the case of MVAYFPMSPG, the amyloid nucleation score is reported as -0.076 ± 0.24. MVCKLTFRRRCPMNRSRHQV gave an amyloid nucleation score of 0.469 ± 0.43. MVLEGHKCYGLRNGPNNARI gave an amyloid nucleation score of 0.451 ± 0.49. MVLIENSCKMSSYQE gave an amyloid nucleation score of -0.405 ± 0.35. With MVNCDYGPLLS the amyloid nucleation score was “inactive”. With MVSYKVLEYYVSLITTHLLF the amyloid nucleation score was -0.36 ± 0.49. MVVGFRLPERLTYWRGGHMS showed an amyloid nucleation score of 5.324 ± 0.047. For MVVYRVPMAQLLPS, the amyloid nucleation score was “inactive”. In the case of MWLLWAKI, the amyloid nucleation score is reported as “inactive”. Substance MWLSPRVVVFCRLIFHLLVG has an amyloid nucleation score of -0.567 ± 1.1. With MWMEVTRPPTGHFRIRGGQA the amyloid nucleation score was “inactive”. In the case of MWNQDLSFFCITRDIKVCTF, the amyloid nucleation score is reported as 4.87 ± 0.06. MWSVLNHLRSDSDFSNA showed an amyloid nucleation score of 1.13 ± 0.61. With MYCYSHDQCESLGQRSFGDT the amyloid nucleation score was 0.218 ± 0.8. In the case of MYISKVFDALLLLRREPRHR, the amyloid nucleation score is reported as “inactive”. MYLCTGFASSFIKSHHITWR showed an amyloid nucleation score of -0.098 ± 0.43. With MYNRG the amyloid nucleation score was 3.87 ± 0.11. MYVDLKLSYNHSPATLW showed an amyloid nucleation score of 5.22 ± 0.061. Work on MYVMTHNL yielded an amyloid nucleation score of 0.776 ± 0.44. For NAHMSRRGYSSMMRCY, the amyloid nucleation score was “inactive”. In the case of NARITVLGSHPWLCPGKVSV, the amyloid nucleation score is reported as 1.06 ± 0.54. NARVL showed an amyloid nucleation score of -0.853 ± 0.64. In the case of NASYRCNM, the amyloid nucleation score is reported as “inactive”. In the case of NCARH, the amyloid nucleation score is reported as -0.215 ± 0.3. Work on NCAVFTSGR yielded an amyloid nucleation score of -0.478 ± 0.63. NCHFTCMPAACGETVKTY gave an amyloid nucleation score of 0.597 ± 0.45. With NCIFDMLLVLR the amyloid nucleation score was “inactive”. Work on NCLEIQFWRLSSRYVGKFVM yielded an amyloid nucleation score of -0.113 ± 0.32. In the case of NCLSM, the amyloid nucleation score is reported as 3.36 ± 0.081. Work on NCPRWICAILYEYHAVRRRV yielded an amyloid nucleation score of 0.713 ± 0.49. Work on NCPSPLVWDCVLVVGDPVAC yielded an amyloid nucleation score of 0.217 ± 0.25. With NCSSIF the amyloid nucleation score was “inactive”. Substance NCYRLWWPVLSTWWRFFI has an amyloid nucleation score of 0.047 ± 0.35. In the case of NDCMGWH, the amyloid nucleation score is reported as “inactive”. Work on NDLSNGSVESMRQYYYLREN yielded an amyloid nucleation score of -0.724 ± 0.3. For NDRNYLSGSGESELLPDCND, the amyloid nucleation score was -0.434 ± 0.76. With NDSNYKPANSYRSPSGNRMV the amyloid nucleation score was “inactive”.
